US20220112288A1 (published 2022)
Substitutions are numbered along the chain they refer to.

B1: 75110_11D03A (antibody, V domains shown)
VH: EVQLVESGGGLVQPGGSLRLSCAASGFTFSSYWMSWVRQAPGKGLEWVANINQDGNEKYYVDSVKGRFTISRDNAKNSLFLQMNSLRAEDTAVYYCAREGGQWLALDYWGQGALVTVSS
VL: DIQMTQSPSSVSASVGDRVTITCRASQGISSWLAWYQQKPGKAPKFLISGASSLQSGVPSRFSGSGSGTDFTLTISSLQPEDFATYYCQQANSFPWTFGQGTKVEIK
notes: Tested here as non-clonal hybridoma supernatant from AlivaMab Mouse Kappa mice (detected with anti-mouse Fc and anti-human kappa)
B2: 75110_07H07A (antibody, V domains shown)
VH: B1 VH with L4V, N52K, Q53E, D54E, N56S, F80Y, A97V, A113T
VL: B1 VL with A13G, F46L, S49F, E105Q
notes: as for B1
B3: 75110_01A06A (antibody, V domains shown)
VH: B1 VH with Q53E, F68L, F80Y, Y95F, A105S
VL: B1 VL with T20S, F46I, S49Y
notes: as for B1
B4: 75110_04K10A (antibody, V domains shown)
VH: B1 VH with N56S, F80Y, M83L, V93M, A105S, A113T
VL: B1 VL with F46V, S49Y, A51V, L54F, T72I
notes: as for B1
B5: 75110_03D16A (antibody, V domains shown)
VH: B1 VH with N56G, F80Y, A97V, A113T
VL: B1 VL with A34T, S49Y, G50A, S67F
notes: as for B1
B6: 75110_02I16A (antibody, IgG1, V domains shown)
VH: QVQLQQWGAGLLKPSETLSLTCDVYGGSFSGYYWTWIRQPPGKGLEWIGEINHSGTTNSNPSLKSRVTISVDTSKSQFSLRLSSVTAADTAVYFCTRELNWFDPWGQGTLVTVSS
VL: DIQMTQSPSSVSASVGDRVTITCRASQDIANWLAWYQQKPGKAPQLLIYAASSLLGGVPSRFSGSGSGADFTLTISSLHPEDFATYYCQQANSFPYTFGQGTKLEIK
notes: Tested as non-clonal AlivaMab Mouse Kappa hybridoma supernatant: human variable domains and human kappa, mouse Fc; also called 75110_02116A
B7: 75110_01D24A (antibody, V domains shown)
VH: QVQLQQWGAGLLKPSETLSLTCAVYGGSFSGYYWSWIRQPPGKGLEWIGEINHSGSTNYNPSLKSRVTISVDTSENQFSLKLNSVTAADTAVYYCARLVNWFDPWGQGTLVTVSS
VL: EIQMTQSPSSVSASVGDRVTITCRASQDISNWLAWYQQKPGKAPNLLIFAASSLQTGVPSRFSGSGSGTDFTLTISSLQPDDFATYYCQQANSFPYSFGQGTNLGIK
notes: Tested as non-clonal AlivaMab Mouse Kappa hybridoma supernatant: human variable domains and human kappa, mouse Fc
B8: 75110_14P05A (antibody, V domains shown)
VH: EVQLVESGGGLVQPGGSLRLSCAASGFTFSSYDVHWVRQATGKGLEWVSTIGTAGDTYYPGSVKGRFTISRENAKNSLYLQMNSLRAGDTAVYYCARGGFYYYGMDVWGQGTTVTVSS
VL: EIVLTQSPGTLSLSPGERATLSCRASQSVSSSYLAWYQQKPGQTPRLLIYGASSRATGIPDRFSGSGSGTDFTLTISRLEPEDFAVFYCQQSGSSPFTFGPGTKVDVK
notes: as for B7
B9: 75110_04G16A (antibody, V domains shown)
VH: QVQLQESGPGLVKPSQTLSLTCTVSGDSISSGYYYWSWIRQHPGKGLEWIGYISYSGSTYYNPSLKSRLTISVNTSKNQFSLKLSSLTAADTAVYYCARDRPSNFDAFDIWGQGTMVTVSS
VL: B8 VL with S30G, S32T, T44A, S53F, F87Y, S92Y, F97L, V107I
notes: as for B7

Target: T1, human CD4 on the surface of SKW3 cells or human PBMCs (human, UniProt P01730 26-458)
T1 construct: whole, on cells; SKW3 CD4 knockout cells served as the negative cell line; also called hCD4; SKW3 WT
Assay: FACS primary screen, non-clonal hybridoma supernatant, SKW3 vs SKW3 CD4 KO cells, anti-mouse Fc A647

Row | SKW3 WT vs KO anti-mFc-647 [ratio] | Binder
1 | 2.6 | B1
2 | 5.7 | B2
3 | 7.5 | B3
4 | 5 | B4
5 | 6.5 | B5

Target: T1, human CD4 on the surface of SKW3 cells …
Assay: FACS confirmation, supernatant on SKW3 WT cells, anti-human kappa FITC; background gMFI 2500

Row | SKW3 WT anti-hu Kappa FITC, gMFI [gMFI] | Binder
6 | 4000 | B1
7 | 8510 | B2
8 | 5930 | B3
9 | 6710 | B4
10 | 7600 | B5

Target: T2, human CD4 on cells (SKW3 cells; human PBMCs) (human, UniProt P01730 26-458)
T2 construct: whole, on cells; SKW3 CD4 knockout cells served as the negative cell line; also called hCD4
Assay: as above

Row | SKW3 WT anti-hu Kappa FITC, gMFI [gMFI] | Binder
11 | 5740 | B6
12 | 5520 | B7
13 | 7520 | B8
14 | 6830 | B9

Target: T1, human CD4 on the surface of SKW3 cells …
Assay: FACS confirmation, supernatant on human PBMCs, anti-mouse Fc A647, CD4+ gate

Row | PBMCs, anti-mFc 647 CD4+ gate - RL1 Binding | Binder
15 | 190000 | B1
16 | 234000 | B2
17 | 321000 | B3
18 | 346000 | B4
19 | 319000 | B5

Target: T1, human CD4 on the surface of SKW3 cells …
Assay: FACS confirmation, supernatant on SKW3 WT cells, anti-mouse Fc A647; background gMFI 3300

Row | SKW3 WT anti-mFc 647, gMFI [gMFI] | Binder
20 | 21100 | B1
21 | 34300 | B2
22 | 32300 | B3
23 | 36700 | B4
24 | 36000 | B5

Target: T3, huCD4-HIS (human, UniProt P01730 26-390, limits assumed)
T3 construct: not shown: HIS tag
Assay: ELISA binning; competitor ibalizumab; 100 ng/mL huCD4-HIS, anti-HIS HRP detection; background 45, max binding 3000000

Row | Ibalizumab ELISA binning signal | Binder
25 | 1.63e+06 | B1
26 | 2.11e+06 | B2
27 | 1.26e+06 | B3
28 | 1.13e+06 | B4
29 | 663000 | B5

Target: T2, human CD4 on cells (SKW3 cells; human …)
Assay: FACS binning on SKW3 cells pre-incubated with supernatant; competitor OKT4-A488, its signal read; background 2163, max binding 8200

Row | SKW3 FACS Binning OKT4 A488 | Binder
30 | 9810 | B6
31 | 11100 | B7
32 | 9340 | B8
33 | 9640 | B9

Target: T4, huCD4-HIS (human, UniProt P01730 26-390, limits assumed)
T4 construct: the ELISA binning is not described in the text of this stretch
Assay: ELISA binning, competitor Ibalizumab; 100 ng/mL huCD4-HIS, anti-HIS HRP detection; background 45, max binding 3000000

Row | Ibalizumab ELISA binning signal | Binder
34 | 823000 | B6
35 | 20300 | B7
36 | 710000 | B8
37 | 52600 | B9

Target: T2, human CD4 on cells (SKW3 cells; human …)
Assay: FACS binning on SKW3 cells pre-incubated with supernatant; competitor RPA-T4-PE-Dazzle 594, its signal read; background 783, max binding 15000

Row | SKW3 FACS Binning RPA-T4-PE-Dazzle 594 | Binder
38 | 2590 | B6
39 | 15200 | B7
40 | 20300 | B8
41 | 13500 | B9

Target: T1, human CD4 on the surface of SKW3 cells …
Assay: FACS primary screen, non-clonal hybridoma supernatant, SKW3 vs SKW3 CD4 KO cells, anti-human kappa FITC

Row | SKW3 WT vs KO anti-hKappa-FITC [ratio] | Binder
42 | 1 | B1
43 | 2.3 | B2
44 | 2.4 | B3
45 | 1.5 | B4
46 | 2.8 | B5

Target: T2, human CD4 on cells (SKW3 cells; human …)
Assay: FACS primary screen, non-clonal hybridoma supernatant, SKW3 vs SKW3 CD4 knockout cells, anti-human kappa FITC

Row | SKW3 WT vs KO anti-hKappa-FITC [fold] | Binder
47 | 1.7 | B6
48 | 2.5 | B7
49 | 2.8 | B8
50 | 2.3 | B9

Target: T2, human CD4 on cells (SKW3 cells; human …)
Assay: FACS confirmation, supernatant on human PBMCs, anti-mouse Fc 647, CD4+ percent of viable cells

Row | Binder | PBMCs, anti-mFc 647 CD4+ Percent Bound of Viable [%]
51 | B6 | 29
52 | B7 | 31
53 | B8 | 27
54 | B9 | 32

Target: T1, human CD4 on the surface of SKW3 cells …
Assay: FACS confirmation, supernatant on human PBMCs, anti-mouse Fc A647

Row | Binder | PBMCs, anti-mFc 647 CD4+ Percent Bound of Viable [%]
55 | B1 | 29
56 | B2 | 27
57 | B3 | 31
58 | B4 | 33
59 | B5 | 31

Target: T1, human CD4 on the surface of SKW3 cells …
Assay: FACS binning on SKW3 cells; competitor OKT4a, anti-human A647 secondary (its signal read); background 5000, max binding 35000

Row | OKT4a anti-hu A647 Secondary signal | Binder
60 | 43700 | B1
61 | 39400 | B2
62 | 43700 | B3
63 | 43100 | B4
64 | 35900 | B5

Target: T2, human CD4 on cells (SKW3 cells; human …)
Assay: FACS confirmation, supernatant on SKW3 WT cells, anti-mouse Fc 647; background gMFI 3300

Row | SKW3 WT anti-mFc 647, gMFI [gMFI] | Binder
65 | 19400 | B6
66 | 25000 | B7
67 | 24000 | B8
68 | 32500 | B9

Target: T2, human CD4 on cells (SKW3 cells; human …)
Assay: FACS primary screen, non-clonal hybridoma supernatant, SKW3 vs SKW3 CD4 knockout cells, anti-mouse Fc A647

Row | SKW3 WT vs KO anti-mFc-647 [fold] | Binder
69 | 3 | B6
70 | 6.8 | B7
71 | 4.6 | B8
72 | 6.3 | B9

Target: T2, human CD4 on cells (SKW3 cells; human …)
Assay: FACS binning on SKW3 cells pre-incubated with supernatant; competitor OKT4a read with anti-human A647 secondary; background 5000, max binding 35000

Row | SKW3 FACS Binning OKT4a anti-hu A647 Secondary | Binder
73 | 30700 | B6
74 | 5320 | B7
75 | 6110 | B8
76 | 6740 | B9

Target: T1, human CD4 on the surface of SKW3 cells …
Assay: FACS binning on SKW3 cells; competitor OKT4-Alexa Fluor 488 (its signal read); background 2163, max binding 8200

Row | OKT4 A488 signal | Binder
77 | 4180 | B1
78 | 2060 | B2
79 | 2140 | B3
80 | 2760 | B4
81 | 2280 | B5

Target: T2, human CD4 on cells (SKW3 cells; human …)
Assay: FACS confirmation, supernatant on human PBMCs, anti-mouse Fc 647, CD4+ gate

Row | PBMCs, anti-mFc 647 CD4+ gate - RL1 Binding | Binder
82 | 218000 | B6
83 | 257000 | B7
84 | 187000 | B8
85 | 255000 | B9

Target: T1, human CD4 on the surface of SKW3 cells …
Assay: FACS binning on SKW3 cells; competitor RPA-T4-PE-Dazzle 594 (its signal read); background 783, max binding 15000

Row | RPA-T4-PE-Dazzle 594 signal | Binder
86 | 13100 | B1
87 | 14900 | B2
88 | 14700 | B3
89 | 9800 | B4
90 | 12300 | B5
